Measured values from patent US20230293680A1 (Genmab, published 2023).
“And” between values parts separate entries of the source, which are not always exact repeats. Identical values can stand only once.

T1: Cyno DR5Mfdel-K420N (cynomolgus monkey DR5 with deletion of amino acids 185-213 and death domain … (cynomolgus monkey))
T1 construct: Transiently expressed on the membrane of CHO-S cells; Based on NCBI XP_005562887.1
T1 chain: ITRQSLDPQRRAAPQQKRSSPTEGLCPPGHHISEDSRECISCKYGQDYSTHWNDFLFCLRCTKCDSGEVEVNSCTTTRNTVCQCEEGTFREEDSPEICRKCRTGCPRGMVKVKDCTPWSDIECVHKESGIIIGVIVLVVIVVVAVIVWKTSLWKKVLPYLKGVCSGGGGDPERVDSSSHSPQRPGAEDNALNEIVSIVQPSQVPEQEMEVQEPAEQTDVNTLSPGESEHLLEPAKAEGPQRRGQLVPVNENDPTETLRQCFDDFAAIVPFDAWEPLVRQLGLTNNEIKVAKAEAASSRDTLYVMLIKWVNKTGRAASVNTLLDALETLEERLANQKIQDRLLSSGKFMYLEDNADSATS

T2: DR5sh139-166ECDdelHis (human/mouse chimeric)
T2 construct: also called DR5sh139-166ECDdel-FcRbHisCtag
T2 chain: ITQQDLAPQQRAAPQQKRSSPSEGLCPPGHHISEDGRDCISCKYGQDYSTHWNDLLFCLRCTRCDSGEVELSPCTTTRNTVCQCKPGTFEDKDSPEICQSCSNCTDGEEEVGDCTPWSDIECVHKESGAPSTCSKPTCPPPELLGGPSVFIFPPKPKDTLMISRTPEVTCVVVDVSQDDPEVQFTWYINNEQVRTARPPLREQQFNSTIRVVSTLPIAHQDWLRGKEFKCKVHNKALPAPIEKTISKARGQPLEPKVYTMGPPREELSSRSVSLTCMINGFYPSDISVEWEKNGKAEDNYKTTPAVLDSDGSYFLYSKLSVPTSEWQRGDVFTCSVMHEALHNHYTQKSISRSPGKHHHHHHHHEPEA

B1: IgG1-hDR5-05-E430G (antibody, V domains shown)
VH: QVQLVQSGAEVKKPGASVKVSCKASGFNIKDTHMHWVRQAPGQRLEWIGRIDPANGNTEYDQKFQGRVTITVDTSASTAYMELSSLRSEDTAVYYCARWGTNVYFAYWGQGTLVTVSS
VL: DIQLTQSPSSLSASVGDRVTITCSASSSVSYMYWYQQKPGKAPKPWIYRTSNLASGVPSRFSGSGSGTDFTLTISSLQPEDFATYYCQQYHSYPPTFGGGTKVEIKR
notes: also called second antibody; component of HexaBody-DR5/DR5
B2: IgG1-hDR5-01-G56T-E430G (antibody, V domains shown)
VH: EVQLQQSGAEVVKPGASVKLSCKASGFNIKDTFIHWVKQAPGQGLEWIGRIDPANTNTKYDPKFQGKATITTDTSSNTAYMELSSLRSEDTAVYYCVRGLYTYYFDYWGQGTLVTVSS
VL: EIVMTQSPATLSVSPGERATLSCRASQSISNNLHWYQQKPGQAPRLLIKFASQSITGIPARFSGSGSGTEFTLTISSLQSEDFAVYYCQQGNSWPYTFGQGTKLEIKR
notes: also called first antibody; component of HexaBody-DR5/DR5

Columns and labels:
DR5sh79-115ECDdelHis = target: T3, DR5sh79-115ECDdelHis (human/mouse chimeric); test: ECLIA, coated DR5sh79-115ECDdelHis, detection with SULFO-TAG anti-human IgG
T3 construct: also called DR5sh79-115ECDdel-FcRbHisCtag

[1] = target: T1, Cyno DR5Mfdel-K420N (cynomolgus monkey …); test: flow cytometry on CHO-S cells transiently expressing cynomolgus monkey DR5; average of n = 4, SD in brackets
DR5sh139-166ECDdelHis = target: T2, DR5sh139-166ECDdelHis; test: ECLIA, coated DR5sh139-166ECDdelHis, detection with SULFO-TAG anti-human IgG

Binder | binding result (DR5sh79-115ECDdelHis) | EC50 [1] | binding result (DR5sh139-166ECDdelHis)
B1 | no binding | 0.17 µg/mL and 1.16 nM | 
B2 |  | 0.27 µg/mL and 1.77 nM | no binding
